Patent US6136558A, “Heregulin variants” (Genentech, Inc., priority 1998, dated 2000)
Numbering of substitutions follows the chain as printed. Ends that are not written are not given here.

Tests used:
ErbB-4-Ig [1] = experiment: Inhibition of 125I-HRG-β1 177-244 binding to ErbB-4-Ig by soluble protein
Procedure: (§1) The affinities of the Trx-variant fusions for ErbB receptor-Ig fusions were determined by measuring inhibition of ^125 I-HRG-β1 177-244 binding to ErbB-3-Ig and ErbB-4-Ig. Receptor fusions were coated on plates (Nunc Maxisorp C™ break-apart strip wells, Inter Med, Denmark) via anti-human IgG, as described in Example 1 for phage ELISA. Binding assays were carried out with a constant amount of ^125 I-HRG-β1 177-244 (100-300 pM) and varying concentrations (100 pM-4 μM) of unlabeled Trx-variant fusion. Following incubation for 1-3 h at room temperature, plates were washed, and the amount of bound ^125 I-HRG-β1 177-244 in each well was counted on a gamma counter (Isodata, ICN Biomedic Systems, Huntsville, Ala.). For the ErbB-3 binding assays, the blocking buffer was TBST (0.025 M Tris-HC1 [pH 7.5], 0.15 M NaCl, 0.02% Tween 20™) containing 1% BSA; the binding buffer was RPMI 1640™ cell culture media (Gibco-BRL, Gaithersburg, Md.) containing 2 mM glutamine, 100 U/mL penicillin, 100 μg/mL streptomycin, 10 mM HEPES buffer (pH 7.2), 0.2% BSA; and the wash buffer was TBST. For the ErbB-4 binding assays, PBS containing 1% BSA was used as the blocking and binding buffers, and the wash buffer was PBS containing 0.05% Tween 20™.

ErbB-3-Ig [2] = experiment: Inhibition of 125I-HRG-β1 177-244 binding to ErbB-3-Ig by soluble protein
Procedure: as §1

[3] = biological target: ErbB-2/3 receptor-Ig fusion (ErbB-2/3-Ig); experiment: Phage ELISA, competition with soluble ErbB-2/3-Ig; format: binding; details: EGF-like domain displayed monovalently on phage as pIII fusion; soluble ErbB-2/3-Ig competing half of the phage off the plate; average of duplicate experiments
Excerpt: (§2) To produce phage displaying the domains, mutagenesis reaction mixtures were electrotransformed into XL1-Blue™ cells (Stratagene, Inc., La Jolla, Calif.), according to the manufacturer's protocol. The transformed cells were then infected with 10^11 plaque-forming units (pfu) M13K07 helper phage (Promega Corp., Madison, Wis.). […] The phage were resuspended in phosphate-buffered saline (PBS: 0.01 M sodium phosphate, 0.1 M NaCl, pH 7.5).
(§3) Microtiter plates (Nunc Maxisorp™ 96-well plates, Inter Med, Denmark) for phage ELISA were prepared as follows. The wells were precoated overnight with 0.5 μg of rabbit anti-human IgG (Fc gamma fragment-specific) antibodies (Jackson Immunoresearch, West Grove, Pa.) in 100 μL 50 mM NaCO3 (pH 9.6). The wells were blocked for 30 minutes (min) with 200 μL PBS containing 0.1% bovine serum albumin (BSA) and rinsed with wash buffer (PBS containing 0.05% Tween 20™). The wells were then coated with 0.1 μg ErbB-2/3-Ig in binding buffer (PBS, 0.1% BSA, 0.05% Tween 20™) for 1 h, and washed again.
(§4) Following incubation for 2 h at room temperature, plates were washed extensively and treated with a 1:900 dilution of anti-M13 horseradish peroxidase conjugate (Pharmacia, Piscataway, N.J.) for 20 min. The amount of phage binding was determined by assaying horseradish peroxidase activity using o-phenylenediamine dihydrochloride) substrate solution (Sigma Chemical Company, St. Louis, Mo.).

[4] = biological target: ErbB-3 receptor-Ig fusion (human) (UniProt P21860); experiment: phage ELISA, ratio to wild-type HRG-β1 177-244 on phage
[5] = biological target: ErbB-4 receptor-Ig fusion (human) (UniProt Q15303); experiment: phage ELISA, ratio to wild-type HRG-β1 177-244 on phage; clone selected on ErbB-4-Ig
[6] = biological target: ErbB-4 receptor-Ig fusion (human) (UniProt Q15303); experiment: phage ELISA, ratio to wild-type HRG-β1 177-244 on phage; clone selected on ErbB-4-Ig with ErbB-3-Ig counter-selection
[7] = biological target: ErbB-3 receptor-Ig fusion (human) (UniProt P21860); experiment: phage ELISA, soluble ErbB-3-Ig as competitor
[8] = biological target: ErbB-4 receptor-Ig fusion (human) (UniProt Q15303); experiment: phage ELISA, soluble ErbB-4-Ig as competitor
ErbB-3-Ig [9] = experiment: Phage ELISA, binding to ErbB-3-Ig
Excerpt: as §2, §3, §4
(§5) Alanine-substituted variants were generated by site-directed mutagenesis according to Kunkel et al., Methods Enzymol. […] A series of oligonucleotides was used to generate a series of constructs that expressed a series of variants in which consecutive residues were mutated to alanine.
(§6) In addition, phagemid vectors for use in producing phage displaying mutated HRG-β1 EGFs containing various combinations of the above mutations ("combination variants") were prepared by Kunkel mutagenesis, using templates prepared from several of the above-described variants. […] Some of the variants and combination variants were also tested for relative ErbB-4-Ig affinity to assess specificity.
(§7) The affinities of the variants for ErbB-3-Ig and ErbB-4-Ig were determined to assess specificity.

ErbB-4-Ig [10] = experiment: Phage ELISA, binding to ErbB-4-Ig
Excerpt: as §2, §3, §4, §5, §6, §7

[11] = biological target: ErbB-2/3 receptor-Ig fusion (human) (UniProt P04626); experiment: phage ELISA, soluble ErbB-2/3-Ig as competitor
[12] = biological target: ErbB-4 receptor-Ig fusion (human) (UniProt Q15303); experiment: displacement of 125I-HRG-β1 177-244 from ErbB-4-Ig
[13] = biological target: ErbB-3 receptor-Ig fusion (human) (UniProt P21860); experiment: displacement of 125I-HRG-β1 177-244 from ErbB-3-Ig
[14] = biological target: ErbB-3 receptor-Ig fusion (human) (UniProt P21860); experiment: phage ELISA, ratio to wild-type HRG8 phage
[15] = biological target: ErbB-4 receptor-Ig fusion (human) (UniProt Q15303); experiment: phage ELISA, ratio to wild-type HRG8 phage
[16] = biological target: ErbB-4 receptor-Ig fusion (human) (UniProt Q15303); experiment: phage ELISA, soluble ErbB-4-Ig as competitor; remark: listed apart in the source
[17] = soluble HRG-β1 EGF variant free of pIII, inhibition of 125I-HRG binding, read-out: ErbB-4-Ig EC50
[18] = soluble HRG-β1 EGF variant free of pIII, inhibition of 125I-HRG binding, read-out: ErbB-3-Ig EC50
[19] = phage ELISA, relative to wild-type HRG-β1 EGF phage in same run, above 1 = higher affinity than wild-type
[20] = soluble thioredoxin (Trx) fusion, inhibition of 125I-HRG-β1 177-244 binding, read-out: Sol EC50, binding to the ErbB-4 Receptor
[21] = soluble thioredoxin (Trx) fusion, inhibition of 125I-HRG-β1 177-244 binding, read-out: Sol EC50, binding to the ErbB-3 Receptor

A3: HRG-β1 EGF: S177W, H178E, K181P
EC50 (ErbB-4-Ig [1]; [17]): 0.0021 ± 0.0001 µM | EC50 (ErbB-3-Ig [2]; [18]): 0.0043 ± 0.0002 µM

HRG6: HRG-β1 177-227 fused to pIII 247 (SHLVKCAEKEKTFCVNGGECFMVKDLSNPSRYLCKCPNEFTGDRCQNYVMA; cysteine pairing not given here; also: fused to pIII 247)
EC50 [3]: 0.04 µM

HRG-β1 177-244 H178W with Met in place of 228-231, on phage (ligand)
EC50 Mut/Wt [4]: 1.2 | EC50 Mut/Wt [5]: 1.7

HRG-β1 177-244 L179M on phage (ligand)
EC50 Mut/Wt [4]: 1.2 | EC50 Mut/Wt [5]: 1.5

HRG-β1 177-244 H178L with Met in place of 228-231, on phage (ligand)
EC50 Mut/Wt [6]: 1.7 | EC50 Mut/Wt [4]: 6.4

HRG-β1 177-244 H178E on phage (ligand)
EC50 Mut/Wt [4]: 9.5 | EC50 Mut/Wt [5]: 1.7

HRG-β1 177-244 H178T L179M on phage (ligand)
EC50 Mut/Wt [6]: 1.6 | EC50 Mut/Wt [4]: 1.4

HRG-β1 177-244 H178D L179V on phage (ligand)
EC50 Mut/Wt [6]: 2 | EC50 Mut/Wt [4]: 2.2

HRG7: HRG-β1 177-228 fused to pIII 247 (SHLVKCAEKEKTFCVNGGECFMVKDLSNPSRYLCKCPNEFTGDRCQNYVMAS; cysteine pairing not given here; also: fused to pIII 247)
EC50 [3]: 0.042 µM

HRG-β1 177-244 R207P on phage (ligand)
EC50 Mut/Wt [6]: 1.3 | EC50 Mut/Wt [4]: 6.1

HRG-β1 177-244 H178L on phage (ligand)
EC50 Mut/Wt [6]: 1.2 | EC50 Mut/Wt [4]: 1.4

F1: single library F variant: Met198Lys and Met226Ile
EC50 (ErbB-4-Ig [1]; [17]): 0.00026 ± 1.1e-05 µM | EC50 (ErbB-3-Ig [2]; [18]): 0.0006 ± 4e-05 µM

HRG-β1 177-244 L179V on phage (ligand)
EC50 Mut/Wt [4]: 1.5 | EC50 Mut/Wt [5]: 1.6

HRG-β1 177-244 H178A on phage (ligand)
EC50 [7]: > 1 µM | EC50 [8]: 0.032 µM

HRG-β1 177-244 T217A on phage (ligand)
EC50 [7]: > 1 µM | EC50 [8]: 0.0142 µM

HRG-β1 177-244 G218A on phage (ligand)
EC50 [7]: > 1 µM | EC50 [8]: > 1 µM

HRG-β1 177-244 E215A on phage (ligand)
EC50 [7]: 0.051 µM | EC50 [8]: 0.032 µM

HRG-β1 177-244 H178E L179V on phage (ligand)
EC50 Mut/Wt [6]: 1.7 | EC50 Mut/Wt [4]: 0.8

G1: K211R, P213S, N214L (SHLVKCAEKEKTFCVNGGECFMVKDLSNPSRYLCRCSLEFTGDRCQNYVMAS)
Phage ErbB-3 EC50 (wt)/EC50 (mut) (ErbB-3-Ig [9]; [19]): 1.2 ± 0.36 | Phage ErbB-4 EC50 (wt)/EC50 (mut) (ErbB-4-Ig [10]; [19]): 1.6

B1: HRG5 (ligand)
chain: YVSSESPIRISVSTEGANTSSSTSTSTTGTSHLVKCAEKEKTFCVNGGECFMVKDLSNPSRYLCKCPNEFTGDRCQNYVMASFYKHLGIEFMEAEELY
EC50 [11]: 0.0047 µM | EC50 [3]: 0.0047 µM

B2: HRG4 (ligand)
chain: YVSSESPIRISVSTEGANTSSSTSTSTTGTSHLVKCAEKEKTFCVNGGECFMVKDLSNPSRYLCKCPNEFTGDRCQNYVMA
EC50 [11]: 0.038 µM | EC50 [3]: 0.038 µM

B3: TH-WT (thioredoxin fused at its C-terminus to wild-type HRG-β1 146-244) (ligand)
chain: DDDDKAYVSSESPIRISVSTEGANTSSSTSTSTTGTSHLVKCAEKEKTFCVNGGECFMVKDLSNPSRYLCKCPNEFTGDRCQNYVMASFYKHLGIEFMEAEELY
EC50 (ErbB-4-Ig [1]; [20]): 0.0154 µM | EC50 [12]: 0.0154 µM | EC50 [13]: 0.0476 µM | EC50 (ErbB-3-Ig [2]; [21]): 0.0476 µM

B4: B3 (phage) (ligand)
chain: SHLVKCGEEREGFCVNGGECFMVKDLSNPSRYLCKCPNEFTGDRCQNYVMAS
EC50(wt)/EC50(mut) [14]: 4.7 | EC50(wt)/EC50(mut) [15]: 1.7

B5: HRG7 (ligand)
chain: B4 chain with G7A, E9K, R10E, E11K, G12T
EC50 [11]: 0.042 µM

B6: HRG6 (ligand)
chain: SHLVKCAEKEKTFCVNGGECFMVKDLSNPSRYLCKCPNEFTGDRCQNYVMA
EC50 [11]: 0.04 µM

B7: HRG2 (HRG-β1 177-244 displayed on phage) (ligand)
chain: SHLVKCAEKEKTFCVNGGECFMVKDLSNPSRYLCKCPNEFTGDRCQNYVMASFYKHLGIEFMEAEELY
EC50 [11]: 0.006 µM | EC50 [7]: 0.013 µM | EC50 [16]: 0.019 µM

B8: HRG-β1: recombinantly produced HRGβ1 177-244 (wild-type) (protein)
chain: B7 chain
modifications: ends and bridges not checked
EC50 (ErbB-4-Ig [1]; [20]): 0.0148 µM | EC50 (ErbB-3-Ig [9]; alanine-substituted HRG-β1 177-244 displayed on phage, read-out: Phage EC50, binding to the ErbB-3 Receptor): 0.013 µM | EC50 (ErbB-4-Ig [10]; alanine-substituted HRG-β1 177-244 displayed on phage, read-out: Phage EC50, binding to the ErbB-4 Receptor): 0.019 µM | EC50 (ErbB-3-Ig [2]; [21]): 0.009 µM

B9: HRG11 (ligand)
chain: SHLVKCAEKEKTFCVNGGECFMVKDLSNPSRYLCKCPNEFTGDRCQNYVMASFYGGGSGGG
EC50 [11]: 0.019 µM

B10: HRG11: HRG-β1 177-230 attached to pIII 247 through GGGSGGG linkage (protein)
chain: B9 chain
modifications: also: attached to pIII 247 through GGGSGGG linkage
notes: HRG-β1 177-230 attached to pIII 247 through GGGSGGG linkage
EC50 [3]: 0.019 µM

B11: D4 (phage) (ligand)
chain: SHLVKCAEKEKTFCVNGGECYRVKTLSNPSRYLCKCPNEFTGDRCQNYVMAS
EC50(wt)/EC50(mut) [14]: 2.9 | EC50(wt)/EC50(mut) [15]: 5

B12: I2 (phage) (ligand)
chain: B11 chain with Y21F, R22M, T25D, N47H, M50I
EC50(wt)/EC50(mut) [14]: 20 | EC50(wt)/EC50(mut) [15]: 10
